Results on 21 variants are retold here after the RNAGym collection of RNA variant scans (doi:10.1073/pnas.2313332121).

B1: TPR t1 (parent)
chain: GACCAAUCUGCCCUCAGAGCUCGAGAACAUCUUCGGAUGCAGAGGAGGCAGGCUUCGGUGGCGCGAUAGCGCCAACGUCCUCAACCUCCAAUGCAUCCCACCACAUGAUGAUGCCUGAAGAGCCUUGGUUUUUUG

In this data set the parent is B1. As to the kind of experiment: polymerase ribozyme fitness, log enrichment relative to wild type (log ratio); higher = more active; in vitro selection for triplet polymerase activity. A digest of the protocol:
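Libraries of mutants in each subunit of a heterodimeric triplet polymerase ribozyme were generated by PCR and transcribed. In triplicate, each went through one in vitro selection round: annealing with biotinylated primer, partner subunit and triplets; frozen incubation at −7 °C; gel excision of extended constructs; streptavidin-bead capture; RT-PCR. Fitness, taken from Illumina sequencing of input and output libraries, is the logarithm of a genotype's enrichment over wild-type enrichment, averaged across replicates with inverse-variance weights. The logarithm is base 2, and genotypes needed ≥10 input reads and ≥1 read per output to be kept.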
In the case of GACCAAUCUGCCCUCAGAGCUCGAGAACAUCUUCGGAUGCAGAGGAGGCAGGCUUCGGUGGCGCGAUAGUGCCAACGUUCUCAACCUCCAAUGCAUCCCACCACAUGAUGAUGCCUGAAGAGCCUUGGUUUUUUG [C70U C79U], the “polymerase ribozyme fitness (log ratio)” value was 0.361.

In the case of GACCAGUCUGCCCUCAGAGCUCGAGAACAUCUUCGGAUGCAGAGGUGGCAGGCGUCGGUGGCGCGAUAGCGCCAACGUCCUCAACCUCCAAUGCAUCCCACCACAUGAUGAUGCCUGAAGAGCCUUGGUUUUUUG [A6G A46U U54G], the “polymerase ribozyme fitness (log ratio)” value is -1.68.

Turning to GACCAAUCUGCCCUCAGAGCUCGAGAACAUCUUCGGAUGCAGAGGAGGCAGGCUUCGGUGGCGCGAUAACGCCAACGUCCUCAACCUCCAAUGCAUCCCACCACAUGAUGAUGUCUGAAGAGCCUUGGUUUUUUG [G69A C114U], the “polymerase ribozyme fitness (log ratio)” value is -5.33.

As for GACCAAUCUGCCCUCAGAGCUCGAGAACAUCUUCGGAUGCAGAGGAGUCAGGCUUCGGUGGCGCGAUAGCGCCAACGUCCUCAACCUCCAAUGCAUCCCACCACAUGAUGUUGCCUGAAGAGCCGUGGUUUUUUG [G48U A111U U125G], the “polymerase ribozyme fitness (log ratio)” value is -4.47.

Take GUCCAAUCUGUCCUCAGAGCUCGAGAACAUCUUCGGAUGCAGAGGAGGCAGGCUUCUGUGGCGCGAUAGCGCCAACGUCCUCAACCUCCAUUGCAUCCCACCACAUGAUGAUGCCUGAAGAGCCUUGGUUUUUUG [A2U C11U G57U A91U]: the “polymerase ribozyme fitness (log ratio)” value was -4.18.

In the case of GACCAAUCUGCCCUCAGAGCUCGAGAACAUCUUCGGAUGCAGAGGAGGCAGGCUUCGGUGGCGCGAUAGCGCCAACGUCCUCAACCUCCAAUGCAUCCCACCACAUGAUGAUUCCUGACGAGCCUUGGUUUUUUG [G113U A119C], the “polymerase ribozyme fitness (log ratio)” value is -5.27.

Turning to GACCAAUCUGCCCUCAGAGCUCGAGAACAUCUUCGGAUGCAGAGGAGGUAGGCUUCGGUGGUGCGAUAGCGCCAACAGCGUCAACCUCCCAUGCAUCCCACCACAUUAUGAUGCGUGAACAGCCUUGGUUUUUUG [C49U C62U G77A U78G C80G A90C G107U C115G G120C], the “polymerase ribozyme fitness (log ratio)” value was -7.16.

On to GACCAAUCUGCCCUCAGAGCUCGAGAACAUCUUCGGAUGCAGAGGAGGCAGGCUUCGGUGGCGCGAUAGCGCCAACGUCCUCAACCUCCAAUCCAUCCCACCACAUGAUGAUGCCUGAAGAGCCUUGGUUAUUUG [G93C U131A], for which the “polymerase ribozyme fitness (log ratio)” value was -1.05.

Take GACCAAUCUGCCCUCAGAGCUCGAGAACAUCUUCGGUUGCAGAGGAGGCAGGCUUCGGUAGCGCGAUAGCGCCAACGUCCUCAACCUCCAAUGCAUCCCACCACAUGAUGAUGCCUGAAGAGCCUUGGUUUUUUG [A37U G60A]: the “polymerase ribozyme fitness (log ratio)” value was -0.626.

Take GACCACUCUGCCCUCAGAGCUCGAGAACAUCUUCGGAAGCAGAGGAGGCAGGGUUCGGUGGCGCGAUAGCGCCAACGUCCUCAACCUCCAAUGCAUCCCACCACAUGAUGAUGCCUGAAGAGCCUUGGUUUUUUG [A6C U38A C53G]: the “polymerase ribozyme fitness (log ratio)” value was -0.826.

As for GACCAAUCUGCCCUCAGAGCUCGAGAACAUCUUCGGAUGCAGAGCAGGCAGGCUUCGGUGGCGCGAUAGCGCCAACGUCCUCAACCUCUAAUGCAUCCCACCACAUGAUGAUGCCUGAAGAGCCUUGGUUUUAUG [G45C C89U U133A], the “polymerase ribozyme fitness (log ratio)” value is -1.58.

For GACCAAUCUGCCCUCAGAGCUCGAGAACAUCUUUGGAUGCAGAGGAGGCAGGCUUCGGUGGCGCGAUAGCGGCAACGUCCUCAACCUCCAAUGCAUCCCACCACAUGAUGAUGCCUGAAGAGCCUUGGUUUUUUG [C34U C72G], the “polymerase ribozyme fitness (log ratio)” value is -2.99.

Take GACCAGUCUGCCCUCAGAGCUCGAGAACAUCUUCGGAUGCAGAGGAGGCAGGCUUCGGUGGCGCGAUAGCGCCAACUUCCUAAACCUCCAAUGCAUCCCACCAUAUGAUGAUGCCUGAAGUGCCUUGGUAUUUUG [A6G G77U C82A C104U A121U U130A]: the “polymerase ribozyme fitness (log ratio)” value came out at 1.36.

For GACCAUUCUGCCCUCAGAGCUGGAGUACAUCUUCGGAUGCAGAGGAGGCAGGCUUCGGUGGCGCGAUAGCGCCAACGUCCUCAACCUCCAAUGCAUCCCACCAUAUGAUGAUGCCUGAAGAGCCUUGGUUUUUUG [A6U C22G A26U C104U], the “polymerase ribozyme fitness (log ratio)” value was -4.49.

For GACCAAUCUGCCCUCAGAGCUCGAGAACAUCUUCGGAUGCAGAGGUGGCAGGCUUCGGUGGCGUGAUAGCGCCAACGUCCGCAACCUCCAAUGCAUCCCACCACAUGAUGAUGCCUGAAGAGCCUUGGUUUUUUG [A46U C64U U81G], the “polymerase ribozyme fitness (log ratio)” value was -6.35.

In the case of GACCAAUCUGCCCUCAGAGCUCGAGAACAUCUUCGGAUGCAGAGGAGGUUGGCUUCGGUGGCGCGAUAGCGCCAACGUCCUCAACCUCCAAUGCGACCCACCACAUGAUGGUGCCUGAAGAGCCUUGGUUUUUUG [C49U A50U A95G U96A A111G], the “polymerase ribozyme fitness (log ratio)” value was -7.1.

For GACCAAUCUGCCCUCAGAGCUCGAGAACAUCUUCGGAUGCAGAGGAGGGAGGCUUCUGUGGCGCGAUAGCGCCAACGUCCUGAACCUCCAAUGCAGCCCACCACAUGAUGAUGCCUGAAGAGCCUUGGUUUUUUG [C49G G57U C82G U96G], the “polymerase ribozyme fitness (log ratio)” value was -2.49.

As to GACCAAUCUGCCCUCAGAGCUCGAGAACAUCUUCGGAUGCAGAGGAGGCAGGCUUCGGUGGCGCGAUAGCGACAACGUCCUCAACCUCCAAUGCAACCCACCACAUGAGGAUGCCUGAAGAGCCUUGGUUUUUUG [C72A U96A U109G], the “polymerase ribozyme fitness (log ratio)” value was -6.14.

On to GACCAAUCUGCCCUCAGAGCUCGAGAACAUCUUCGGAUGCAGAGAAGGCAGGCUUCGGUGGCGCGAUAGCGCCAACGUCCUCAACCUCCAAUGCAUCCCACCACAUGAUGAUGCCUGAAGAGCCUUGGUAUUUUG [G45A U130A], for which the “polymerase ribozyme fitness (log ratio)” value is -1.49.

For the variant GACCAAUCUGUCCUCAGAGCUCGAGAACAUCUUCGGAUGCAGAGGAGGCAGGCUUCGGUGGCGCGAUACCGCCAACGUCCUCAACCUCCAAUGCAUCCCACCACAUGAUGAUGCCUGAAGAGCCUUGGUUUUUUG [C11U G69C], the “polymerase ribozyme fitness (log ratio)” value is -1.87.

Turning to GACCAAUCUGUCCUCAGAGCUCGAGAACAUCUUCGGAUGCAGAGGAGGCAGGCUUCGGUGGCGCGAUAACGCCAACGUCCUCAACCUCCAAUGCAUCCCACCACAUGAUGAUGCCUGAAGAGCCUUGGUUUUUUG [C11U G69A], the “polymerase ribozyme fitness (log ratio)” value was -2.2.
